Biological target: SSPG1d peptide (…) (Sclerotinia sclerotiorum)
Test: phage ELISA during panning of the phage display scFv library

B1: scFv-SSPG1d-peptide (scFv)
scFv: MDIVLTQSPAIMSASPGEKVTMTCSASSSVSYMHWYQQKSSTSPKLWIYDTSKLASGVPGRFSGSGSGNSYSLTISSMEAEDVATYYCFQGSGYPLTFGAGTKLEIKRGAGGSGGGGSGGGGSGGGGSQVQLQQSGAELVRPGSSVKISCKASGYAFSNYWMNWVKQRPGQGLEWIGQIYPGYGDAKYNGKFKGKATLTADISSSTAYMQLSSLTSEDSAVYFCARSSYEANWGQGTLVTVSA
  absorbance at 450 nm above background (absorbance (450 nm)): 0.871
